Test results from paper doi:10.1101/2025.08.29.673170.

Molecular target: F-actin (pre-polymerized actin filaments) (UniProt P68135)
Experiment: co-sedimentation

duty ratio KABD = kon/(kon + koff) | Kd | Substance
0.14 |  | 10xHis-SNAP-EzrABD (domain or fragment)
0.1 | 10 µM | 10xHis-SNAP-EzrABD K577A (domain or fragment)
0.71 | 0.4 µM | 10xHis-SNAP-UtrABD (from UniProt P46939 1-261) (domain or fragment)
